Data: paper PMC8196545 (Cell reports, 2021)
Where a chain is given by its changes, count along the chain named.

B1: c5272 (antibody, V domains shown)
VH: EVRLQESGPELVKPSGTLSLTCTIYGESIFPYFYSWIRQTAGGGLQWIGRLYSSTGSSKSNPSIHLRVALSVDRDRNQVGLRMTSMSLADTGVYYCVRDVMRGYDSFDGSSGIYGGVDIWGRGTTVTVSS
VL: QFLLTQPHSVSESPGKTITISCTRSSGTFASKSVLWFSQRPGSRPTNVIFETNRRAAGVPDRFSGSVDSSSSSATLTISGLRTEDEGDYYCQSYDGGNHVVFGGGTKVTVL
B2: c31993 (antibody, V domains shown)
VH: EVQLVQSGAEVKKPGESLKISCKCSGYTFSDHWIGWVRQRPEKGLEWMGIIFPDDSETRYSPSFEGQVTFSVDTASSTAYLLWNSLKPSDTATYYCARQESDEVRGARYDIWGQGTVVAVSS
VL: QSVLTQPPSVSGTPGQRVTISCSGSTSNVENNYVFWYQQLPGKAPELLIDGSNQRPSGVPDRFSGSKSGISASLAISGLRSEDEAYYYCAAWDESFVYLFGGGTKLTVL
B3: c5331 (antibody, V domains shown)
VH: HVHLQESGPGLVKPSETLSVTCQVSGSPLSRYFWSWIRQPAGGGLEWIGRHYPSSGSNTASAALHTRITMSMDFRNNRLSLTLRSVTAADTAVYYCTRDVMRDFNDVNGSGGTFRGVEFWGRGTTVTVSS
VL: SFILTQPHAVSESPGKTVTISCTRSSGSIDTAYVHWYQQRPGRPPTTLIYDANQRPSGVPDRFSASVDSSSSSASLTISGLEAEDEAIYYCQSSDSGHRVVFGGGTELTVL
B4: c5229 (antibody, V domains shown)
VH: QMQLQESGPRLVKPSETLTVTCSVSGGSMSHFHWSWIRQSAGKGLEWIGSVYGNSGSVRSNPSLHTRVAFSLGRGQISLNLKWATAADTAVYYCARELARDFDYNFGHGGSSFGIEVWGRGTLVTVSS
VL: NFILTQPHSVSGSPGKTVIISCTRSSGNIGDNSVQWYQQRPGTPPRTVISEKNKRPSGVPDRFSASIDTSSNSASLTISGLTTEDEADYYCQSCDSGNRLIFGGGTTLTVL
B5: c5616 (antibody, V domains shown)
VH: LVRLAESGGGVVRPGESLTLSCATSGFSFSSYGMHWVRQIPGKGLEWVAVIWNDGSRRYYSDSVQGRFTIAKDTSNKTLSLHMRDLQVGDTAVYFCARAYGPQSEMDSWGLGTLVTVSS
VL: SSELTQPPSVSVSPGQTAILTCVGDILPRKHAYWYRQRAGRAPTLIVFGDNNRPSGIPARFSGFTSGTVATLVITAAQVDDGGDYFCYSADNSGNHRGVFGGGTRLTIL
B6: c5358 (antibody, V domains shown)
VH: RLQLRESGPALVRPSETLSLTCTVSGGPTSDFFWSWVRQAAGGRLEWIGRIYASDGSTKMNPALHTRIGLELNTLENIFNLRLLSVTAADTAVYFCVREEVHGYDSWNSDSGTYNGIDAWGLGTPVTVSS
VL: SVVLTQPPSVSGSPGETVIISCTRSSGAIPSRHVQWYRQRPGGLPARVIFANSQRPHWVPDRYSASVDASSNTASLTISGLQPDDEAKYFCQSFDDTRHHHIVFGGGTEVIVV
B7: c22681 (antibody, V domains shown)
VH: QIRLVESGGALVKPGGSLRLSCTASGFPFGHYYLSWVRQGPGRGLEWVAHISARSTTIVYADSVRGRFTISRDNDKRSLYLEMNDLRVDDTAMYYCARDSFKWTWEYFDAWGQGTRVSVSS
VL: QSVLTQPPSVSGAPGQTVAISCSGSTSNIGHNPVSWYRNVPGTAPRIIIFSDSQRPSGIPGRFSGSKSGTSASLVITDLQLEDEGDYYCAAWGGSLRGALFGGGTKVTVL
B8: c5266 (antibody, V domains shown)
VH: QVRLQESGPGLVKPSETLSLTCSVSGASVTAYSWSWVRLSAERGLEWIGRILPTIGSNRSNPSLHMRVGMSADTSKNLLSLRLTSVTAADTATYFCARDLVRDYDSWGGDYSTFHGIDVWGQGITVTVSL
VL: NSLLTQPPSVSESPGKTVNISCTRTSGGITWDFVQWYQQRPGRAPAIVIYANDRRPSGVPDRFAGSIDSSSNSAALIISGLITEDEADYYCQSFHPRGHVVFGGGTKLTVL
B9: c5299 (antibody, V domains shown)
VH: QVRLLESGPGLVKPSGTLSLTCHVSGASVTSFSWSWVRQSAQKGLQWLGRILPTNGSNKSNPSLHPRVGLAADTSTNQLSLRLTSVTAADSGIYFCARDFVRDYDSWASDYSTLHGIDVWGPGTSVTVSF
VL: NSLLTQPPSVSESPGKTVTISCTRTSGDITWDFVQWYRHRPGTSPTLVIFANDRRASGVPDRFSGSIDSSSNTAALTISGLKTDDEADYYCQSFHPRYHVVFGGGTKLTVL
B10: c5260 (antibody, V domains shown)
VH: QVRLQESGPRLVKPSETLSLTCTVSGASVTSYSWSWIRYSAERGLEWIGRILPTIGSNRANPSLHFRVGMSADTSKNLLSLRLTSLTAADTAIYFCARDLVRDYDSWGGDYSTFHGIDVWGQGTTVIVSL
VL: NSLLTQPPSVSESPGKTVNISCTRTSGAITWDFVQWYQKRPGSVPTVVIYANDRRPSGVPDRFSGSIDSSSNSAALTISRLKTEDEAEYYCQSFHPRSHVVFGGGTKLTVL
B11: c10895 (antibody, V domains shown)
VH: QEQGIESVRAAVESGASLIISCPTSGFDFARYTMHWVRQAPGKGLEWVAVTSSQGEKKYYSEAVKGRFVITRNNFKRTLYLEMSSLKPEDAGVYYCARSQGYCGTYACYGYYYYMDVWVKGPTVIVSS
VL: QSVLTQPPSVSAAPGEKVAISCSGNTTNIEKNYVAWYQHVPETAPKLLIFENHKRPFGIPDRFSGSKSATSATLGISDLQTADEADYYCQTWDTKLHIWVFGGGTKLTVL
B12: c807 (antibody, V domains shown)
VH: QVQLQESAPRLVTTSETLSLTCTVFGGQFYPFFYSWVRQSPGGKLQWIGRKYSSTGSMRTNPSLHTRVGMPLDHSKSQIGLTMSSMTAADTGIYYCVRDIMREFDSVDGSGGVYGGVDVWGRGTTVTVSS
VL: NFMLTQPPSVSESPGKTVTISCTRNSGSIASNSVYWYRQRPGSPPTTLIHDNNRRPTGVPDRFSASIDTSSNSASLTISSLKTEDEADYYCQSYDNGNHVIFGGGTNLLVL
B13: c5373 (antibody, V domains shown)
VH: QVRLQESAPRVVKPSESLSLTCTVSGGSIFPFFYSWIRQAPGGGLQWIGRLYSNTGSSKSNPSLHLRVALSVDRSRNQVGLKMTSMTAADTGVYYCVRDIMREFDDFNGAGGVYGGVDIWGRGTAVTVSS
VL: QFVLTQPPSVSESPGKTISISCTRSSGTFARNSVHWYLQRPGSVPKTVIYDGNRRPSGIPGRFSASIDVSSGSASLTISGLTTEDEAEYYCQSFDGGNHVVFGGGTKVTVL
B14: c10819 (antibody, V domains shown)
VH: EMRLEESGGALVKPGGSLRLSCVASGFKLSEWSLMWVRQAPGKGLQWVSSISLNQDYISYAGSVRGRFDVFRDRTQTSLLLNMNKLKTEDTGIYFCARVHAWRYFDWVNRRSPVEKVLSIDLWGRGTLVIVSS
VL: SGATQPPSVSVSKGETARITCSGVELSSQYVSWYRQRPGQSPVLVMFHNNSRASRIPERFSASDSGDTATLTIAGAQDVDEAEYYCQTWDSKNYVTFGGGTKLTVL
B15: c27003 (antibody, V domains shown)
VH: QFQLVQSGAEVRSPGSSVTVSCKASGSTFHTYVLSWVRQAPGQGLEWMGGIIPIFATPKYAQKFQGRVTFTADEGTSTAYMDLRSLRPEDTAVYYCARSATGGTALVDYGDYEGDTFYHNHMDVWGAGTTVTVSS
VL: QSVLTQPPSASATPGQRVTISCSGRTSNVGSYAVSWYQQLPGTAPKLVIYSDDRRPSGVPDRFSGSKSGTSASLAISGLQSEDEADFYCAAWDDSLKTPVFGGGTKLTVL
B16: c24356 (antibody, V domains shown)
VH: QVQVVQSGAEVKQPGASVSVSCKVLGYTLSELSMHWVRQSPAKGLEWMAGFDPDANKEIYAQEFQGRVTLTHHFDTDTYFLELTSLRSDDTAVYYCATGERLAGNFLDWLHNFDYWGQGTLVTVSA
VL: EIVLTQSPATLSLSPGERATLSCRASQSIGNYLAWYQQRPGQAPRLLIHSTSNRATGIPVRFTGSGSGTDFTLTISSLEAEDFAVYYCQHRVNWPPGYTFGQGTKLDIK
B17: c10969 (antibody, V domains shown)
VH: AGHLVESGGKLISPGGSLSLSCVASGFTFKNAHMTWVRQVPGKGLEWIALMKSHADGSHTDYSPSVRDRCAISRDDSTSSLFLHLYNLQLDDTGIYYCVHLSSPDEWGLGTAVTVSS
VL: HIVLTQSPVTLSGSQGDTVALSCRANQSLRSHLAWYQHRPGQTPKVLIYEVSRRRPATPPRFSGSGSGTEFTLVIRGLEPEDSAVYYCQQGDFWPFSFGQGTNLEIT
B18: c26986 (antibody, V domains shown)
VH: QVHLVQSGAEVKKPGSSVKVSCKASGGSFNTNFITWVRQAPGQGLEWMGRIMPMFGTRNLAQRFQGRVTLSADTSSNSVYMELSSLTFGDTAVYFCAREAPAGGLDIWGQGTLVTVSS
VL: QIVLTQSPGTLSLSPGERATLSCRASQSLSSNYLAWYQQKPGQAPRLLIYGASSRATGIPDRFSGSGSGTDFTLTISRLEPEDFAVYYCQQYSTLFSFGPGTRVDIK
B19: c26412 (antibody, V domains shown)
VH: EVRLVQSGGGVVRPGGSLRLSCSASGFSFSRSAMSWVRQAPGKELQWVAAISGSGNSHHISDAFRGRVSISRNNENDSVFLQMSNLRLDDTGKYFCAKSEGGRSGWYYWATEYFQHWGQGAVVTVSS
VL: SSELTQPPSVSVSPGQTARISCSGHTLPQRYATWYQQKPGRAPLLIIFGNNERPSGIPARFSVSASGKSAILTITGVQAEDEGDYICQSSDGSHTSLFFGGGTKLTVL
B20: c24103 (antibody, V domains shown)
VH: EVRLAQSGGGLVQPGGSLRLSCSASGFSFSKSAMSWVRQAPGKELQWVAAISGSGNSQHISDAVRGRLSISRDNLDDSVFLHMNNLRVEDTAKYFCAKSEGGRSGWYYWATEYFQHWGQGAVVTVAS
VL: B19 VL with T26A, Q36R, R41Q, L44I, I47V, S69T, I71M, F98V
B21: c24118 (antibody, V domains shown)
VH: B20 VH with A5V, Q6E, G10S, Q46E, Q58H, L68F, D76G, H82Q, N84Y, E89D
VL: B19 VL with T26A, Q36R, R41Q, L44I, S62F, S69T, F98V

Target: HIV-1 NL4-3 Env on infected cells (HIV-1 group M subtype B, NL4-3 (pNL4-3 …, strain))

Binder | binding result
B1 | binds
B2 | binds
B3 | binds
B4 | binds
B5 | binds
B6 | binds
B7 | binds
B8 | binds
B9 | binds
B10 | binds
B11 | binds
B12 | binds
B13 | binds
B14 | binds
B15 | binds
B16 | binds
B17 | binds
B18 | binds
B19 | binds
B20 | binds
B21 | binds
